Test: Average particle size measurement with single nanoparticle size analyzer IG-1000 (induced diffraction grating method)
Type: physicochemical
Conditions: 1 mg/mL in ultrapure water, 25° C.
Method: The particle size (average particle size) of the nanoparticles according to the invention is measured by, for example, an induced diffraction grating method. An induced diffraction grating method is a method of: (1) irradiating a 1 or 2 mg/mL aqueous solution of the block copolymer of the present invention or a composition including the block copolymer with laser light, thereby forming diffraction gratings by dielectrophoresis; (2) stopping an external force that causes dielectrophoresis, measuring the annihilation rate of the diffraction gratings caused by diffusion, and (3) applying the annihilation rate to the Stokes-Einstein relational equation to obtain the particle size. For example, the particle size may be measured with a single nanoparticle size measuring apparatus, IG-1000, manufactured by Shimadzu Corp.
Measurement of the average particle sizes of the block copolymers of Synthesis Examples and Examples and compositions including those block copolymers was carried out using a single nanoparticle size analyzer, IG-1000, manufactured by Shimadzu Corp. (measurement temperature: 25° C., light intensity at t=0: 100 to 200). Regarding the sample for measuring the average particle size, a solution produced using ultrapure water to a block copolymer concentration of 1 mg/mL or 2 mg/mL and filtered through a 0.45 μm membrane filter, was used.

Substance: 7-ethyl-10-hydroxycamptothecin (EHC)-Bonded and ALEXA FLUOR (registered trademark) 594 Cadaverin (Alexa)-Bonded Product of Polyethylene Glycol (2 kDa)-Polyglutamic Acid (8.3 Polymerization Units) Block Copolymer [Example 3]
- average particle size: 10 nm

Source: patent publication US10869937B2, “Polymer derivatives, and novel polymer derivative imaging probe using same” (Nippon Kayaku Kabushiki Kaisha, priority 2016, dated 2020)
